{"source": "paper PMC6356862", "about": "“A polyextremophilic alcohol dehydrogenase from the Atlantis II Deep Red Sea brine pool” (FEBS Open Bio, 2018)", "molecules": {"B1": {"name": "ADH/A1a (candidate division MSBL1 archaeon SCGC-AAA261F19) (protein)", "chain": "MKAMQLKEPKPVEQAPLEMVELKEPRPGPKEVKIDVQACGVCHTDLHTVEGELSLPKLPIVPGHEVVGVVEESGDEAEHFEVGDRVGVTWLYSSCGECKFCRRGQENLCEDPMFTGLHADGGYEESMVAKEDFVYPIPKNISDEDAAPLLCAGVIGYRSLRLSEVKPGQRLGLFGFGASAHIVIQLATDMGCEVYVFTRSEEHRRLARELGSAWEGSAKDDPPHRIDSGITFAPVGWIVKEALRDLEKGGTLAINAIHMTPIPELDYDLIYHEKKLRSVANVTREDAEGFLKIAGDIPVQTEVETFPLEEANRALRLLKDSKINGAGVLKVS", "notes": "N-terminal 20-residue nonsense region of annotated adh/a1 deleted; N-terminal His6-tag; codon-optimized, expressed in Haloferax volcanii H1895 (pTA963); zinc added"}}, "key": {"[1]": {"biological_target": "Alcohol dehydrogenase/A1a (ADH/A1a) from an uncultured MSBL1 archaeon of the Atlantis II Deep Red Sea brine pool (uncultured MSBL1 (Mediterranean Sea Brine Lake 1) archaeon)", "experiment": "native gel or EMSA; Coomassie-stained native PAGE of purified ADH/A1a (Fig. S4); conditions not given"}, "[2]": {"substrate": "CCO", "experiment": "purified protein", "conditions": "standard oxidation conditions: 3 M KCl, 50 mM glycine/NaOH pH 10.0, 60 °C, 10 mM NAD(P)+, 0.4 mM zinc sulfate, cofactor (NAD+ or NADP+) not specified"}, "[3]": {"substrate": "OC/C=C/c1ccccc1", "experiment": "purified protein", "assay_type": "biochemical, candidate division MSBL1 archaeon SCGC-AAA261F19", "conditions": "standard oxidation conditions: 3 M KCl, 50 mM glycine/NaOH pH 10.0, 60 °C, 10 mM NAD(P)+, 0.4 mM zinc sulfate, cofactor (NAD+ or NADP+) not specified"}, "[4]": {"substrate": "CC(C)=CCC/C(C)=C/CO", "experiment": "purified protein", "assay_type": "biochemical, candidate division MSBL1 archaeon SCGC-AAA261F19", "conditions": "standard oxidation conditions: 3 M KCl, 50 mM glycine/NaOH pH 10.0, 60 °C, 10 mM NAD(P)+, 0.4 mM zinc sulfate, cofactor (NAD+ or NADP+) not specified"}}}
{"molecule": "Alcohol dehydrogenase/A1a (ADH/A1a) from an uncultured MSBL1 archaeon of the Atlantis II Deep Red Sea brine pool (enzyme)", "values": [{"measurement": "stoichiometry N", "setting": "[1]", "result": 4}]}
{"molecule": "B1", "values": [{"measurement": "Km", "setting": "[2]", "result": "94430 ± 8400", "unit": "µM"}, {"measurement": "Vmax", "setting": "[2]", "result": 0.142, "unit": "µmol/min/mg"}, {"measurement": "kcat", "setting": "[2]", "result": 0.089, "unit": "s⁻¹"}, {"measurement": "kcat/Km", "setting": "[2]", "result": 0.94, "unit": "M⁻¹ s⁻¹"}, {"measurement": "Km", "setting": "[3]", "result": "470 ± 90", "unit": "µM"}, {"measurement": "Vmax", "setting": "[3]", "result": 0.237, "unit": "µmol/min/mg"}, {"measurement": "kcat", "setting": "[3]", "result": "0.144 ± 0.009", "unit": "s⁻¹"}, {"measurement": "kcat/Km", "setting": "[3]", "result": "310 ± 10", "unit": "M⁻¹ s⁻¹"}, {"measurement": "Km", "setting": "[4]", "result": "270 ± 40", "unit": "µM"}, {"measurement": "Vmax", "setting": "[4]", "result": 0.131, "unit": "µmol/min/mg"}, {"measurement": "kcat", "setting": "[4]", "result": "0.082 ± 0.003", "unit": "s⁻¹"}, {"measurement": "kcat/Km", "setting": "[4]", "result": "290 ± 18", "unit": "M⁻¹ s⁻¹"}]}
